Values of other authors, collected in PMC2647589.

Target: MeTRH (UniProt P20396)
UniProt P20396, sequence (P20396 whole entry, looked up): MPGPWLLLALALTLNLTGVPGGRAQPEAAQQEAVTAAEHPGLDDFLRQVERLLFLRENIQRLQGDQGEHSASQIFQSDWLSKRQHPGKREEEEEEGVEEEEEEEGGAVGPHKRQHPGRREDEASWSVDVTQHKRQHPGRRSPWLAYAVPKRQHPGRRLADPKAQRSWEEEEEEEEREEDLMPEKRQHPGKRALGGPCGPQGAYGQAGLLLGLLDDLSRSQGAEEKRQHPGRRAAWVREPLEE

Kd: 2 nM
Substance: TRH receptor (from UniProt P21761)
